± gives the uncertainty stated by the source.
Assay: self-splicing fitness, log relative to wild type (ln ratio); higher = more splicing; Tetrahymena group I intron in knt gene, E. coli kanamycin selection, DiMSum; sequences stand for … in CUCUCU…GGAGGGAAAAGUUAUCAGGCAUGCACCUGGUAGCUAGUCUUUAAACCAAUAGAUUGCAUCGGUUUAAAAGGCAAGACCGUCAAAUUGCGGGAAAGGGGUCAACAGCCGUUCAGUACCAAGUCUCAGGGGAAACUUUGAGAUGGCCUUGCAAAGGGUAUGGUAAUAAGCUGACGGACAUGGUCCUAACCACGCAGCCAAGUCCUAAGUCAACAGAUCUUCUGUUGAUAUGGAUGCAGUUCACAGACUAAAUGUCGGUCGGGGAAGAUGUAUUCUUCUCAUAAGAUAUAGUCGGACCUCUCCUUAAUGGGAGCUAGCGGAUGAAGUGAUGCAACACUGGAGCCGCUGGGAACUAAUUUGUAUGCGAAAGUAUAUUGAUUAGUUUUGGAGUACUCGUGGUCG
Summary of the method: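 Colonies from six replicate transformations of E. coli BL21(DE3) were pooled and amplicon-sequenced on an Illumina HiSeq 2500. The library placed an intron with all eight P1ex-region nucleotides randomised inside the knt kanamycin-resistance gene on pET-22b(+), and cells grew overnight at 37°C or 30°C on LB agar with or without 25 μg/mL kanamycin (plus 100 μg/mL carbenicillin, 50 μM IPTG, 0.2% rhamnose). Fitness is the DiMSum error-weighted combination of wild-type-normalised replicate fold changes, kanamycin versus none.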

Row | Sequence | self-splicing fitness (ln) (30 °C) | self-splicing fitness (ln) (37 °C)
1 | GAACAGCAAUAUUACGGAAC | -1.44 ± 0.1 | -1.55 ± 0.13
2 | GGAGAGCAAUAUUACGCUCG | -2.7 ± 0.24 | -2.45 ± 0.19
3 | CCCGAGCAAUAUUACGUGCA | -3.5 ± 0.2 | -1.52 ± 0.15
4 | AACAAGCAAUAUUACGACCG | -0.711 ± 0.12 | 0.209 ± 0.16
5 | AACGAGCAAUAUUACGAUCC | -2.01 ± 0.38 | –
6 | UCCAAGCAAUAUUACGGCAC | -4.06 ± 0.29 | -0.668 ± 0.11
7 | CCAUAGCAAUAUUACGAUGG | -3.35 ± 0.17 | -2.38 ± 0.18
8 | GUAUAGCAAUAUUACGGUAA | -2.59 ± 0.23 | -1.24 ± 0.15
9 | AAGCAGCAAUAUUACGUAAA | -1.84 ± 0.087 | -0.803 ± 0.11
10 | UCGCAGCAAUAUUACGUGUC | -3.83 ± 0.2 | -2.28 ± 0.17
11 | AACAAGCAAUAUUACGUACG | -1.65 ± 0.082 | -0.628 ± 0.094
12 | UCAAAGCAAUAUUACGAGGA | -2.69 ± 0.15 | -0.561 ± 0.13
13 | CAUGAGCAAUAUUACGUUUC | -2.86 ± 0.34 | –
14 | GCAUAGCAAUAUUACGCGCC | -3.02 ± 0.49 | -1.93 ± 0.36
15 | UUUGAGCAAUAUUACGGGCG | -3.15 ± 0.42 | -2.16 ± 0.43
16 | AAAUAGCAAUAUUACGUAUA | -1.63 ± 0.12 | -0.558 ± 0.12
17 | UUACAGCAAUAUUACGCUUC | -3.13 ± 0.37 | -2.99 ± 0.47
18 | CGACAGCAAUAUUACGCGUU | -4.77 ± 0.26 | -3.29 ± 0.18
19 | CAAAAGCAAUAUUACGAUCA | -1.42 ± 0.12 | -1.25 ± 0.12
20 | CACCAGCAAUAUUACGACUU | -3.4 ± 0.14 | -2.69 ± 0.13
21 | GUAAAGCAAUAUUACGUAUA | -1.53 ± 0.11 | -0.524 ± 0.14
22 | CAGCAGCAAUAUUACGAUGU | -4.21 ± 0.22 | -2.6 ± 0.15
23 | UAGUAGCAAUAUUACGGGUC | -4.67 ± 0.46 | -2.97 ± 0.47
24 | GCUGAGCAAUAUUACGGGGA | -2.81 ± 0.3 | -2.03 ± 0.32
25 | UGGAAGCAAUAUUACGUCAA | -1.53 ± 0.12 | -0.758 ± 0.13

Row | Sequence | self-splicing fitness (ln) (30 °C) | self-splicing fitness (ln) (37 °C)
26 | UACUAGCAAUAUUACGGUCC | -1.59 ± 0.14 | -0.676 ± 0.16
27 | GUGCAGCAAUAUUACGUUAA | -1.75 ± 0.13 | -1.25 ± 0.13
28 | GGGGAGCAAUAUUACGCUUA | -1.04 ± 0.2 | -1.1 ± 0.27
29 | CAAAAGCAAUAUUACGAUAA | -2.29 ± 0.1 | -0.871 ± 0.099
30 | CGCAAGCAAUAUUACGGUCU | -0.969 ± 0.066 | -0.898 ± 0.081
31 | CUCCAGCAAUAUUACGCCGU | -3.6 ± 0.3 | -3.11 ± 0.35
32 | UCUAAGCAAUAUUACGGAGA | -1.6 ± 0.22 | -1.3 ± 0.18
33 | CAUAAGCAAUAUUACGACAG | -0.32 ± 0.072 | 0.334 ± 0.09
34 | CCCCAGCAAUAUUACGACGA | -4.12 ± 0.39 | -2.68 ± 0.27
35 | GGUGAGCAAUAUUACGUGGG | -3.2 ± 0.23 | -2.09 ± 0.23
36 | UUCAAGCAAUAUUACGGGGG | -3.34 ± 0.26 | -0.739 ± 0.16
37 | GCCUAGCAAUAUUACGUGAA | -0.836 ± 0.073 | 0.346 ± 0.077
38 | AUCCAGCAAUAUUACGUUUA | -1.81 ± 0.076 | -1.01 ± 0.081
39 | GUCCAGCAAUAUUACGGUAA | -0.283 ± 0.086 | 0.647 ± 0.079
40 | CGACAGCAAUAUUACGGAGG | -1.91 ± 0.086 | -1.21 ± 0.12
41 | GACCAGCAAUAUUACGGGGC | -2.78 ± 0.18 | -2.14 ± 0.15
42 | UAUGAGCAAUAUUACGUAAG | – | -2.16 ± 0.19
43 | CCUAAGCAAUAUUACGAAGC | -2.92 ± 0.18 | -1.92 ± 0.28
44 | GUUGAGCAAUAUUACGUGCG | -3.02 ± 0.21 | -2.07 ± 0.25
45 | GCGUAGCAAUAUUACGUAGG | -3.73 ± 0.22 | -2.02 ± 0.19
46 | UCCAAGCAAUAUUACGGUUC | -3.22 ± 0.22 | -2.56 ± 0.18
47 | UGCUAGCAAUAUUACGUGAG | -3.51 ± 0.18 | -1.78 ± 0.21
48 | AGCGAGCAAUAUUACGAGAU | -4.2 ± 0.3 | -2.15 ± 0.19
49 | GCGUAGCAAUAUUACGGUUC | -2.26 ± 0.14 | -0.643 ± 0.18
50 | AAUCAGCAAUAUUACGGCUC | -0.84 ± 0.082 | 0.535 ± 0.097

Row | Sequence | self-splicing fitness (ln) (30 °C) | self-splicing fitness (ln) (37 °C)
51 | GGAAAGCAAUAUUACGCAUU | -2.5 ± 0.12 | -2.55 ± 0.25
52 | GCCCAGCAAUAUUACGGCCG | -1.11 ± 0.28 | –
53 | GACUAGCAAUAUUACGCAUU | -2.42 ± 0.14 | -1.63 ± 0.13
54 | UGGGAGCAAUAUUACGUAUG | -3.01 ± 0.14 | -1.84 ± 0.22
55 | UGUGAGCAAUAUUACGACAG | -1.7 ± 0.1 | -1.59 ± 0.12
56 | GACUAGCAAUAUUACGACAA | -0.896 ± 0.063 | -0.0215 ± 0.069
57 | UGGGAGCAAUAUUACGCCGA | -0.637 ± 0.4 | -0.137 ± 0.24
58 | UUCCAGCAAUAUUACGUAGA | -0.592 ± 0.076 | -0.502 ± 0.093
59 | GGGGAGCAAUAUUACGAAAU | -3.38 ± 0.47 | -2.37 ± 0.39
60 | UGCCAGCAAUAUUACGGGUU | -2.46 ± 0.13 | -2.34 ± 0.12
61 | GUACAGCAAUAUUACGUUUA | -2.62 ± 0.15 | -1.89 ± 0.11
62 | GGAUAGCAAUAUUACGGCAU | -0.507 ± 0.09 | 0.598 ± 0.11
63 | ACUGAGCAAUAUUACGGUUG | -2.76 ± 0.14 | -1.73 ± 0.15
64 | UCUGAGCAAUAUUACGCACA | – | -1.23 ± 0.49
65 | UCACAGCAAUAUUACGUCGG | -1.43 ± 0.077 | -0.796 ± 0.083
66 | AACCAGCAAUAUUACGGGGG | -2.43 ± 0.095 | -1.02 ± 0.091
67 | UAUUAGCAAUAUUACGCCAU | – | -1.68 ± 0.21
68 | CCGAAGCAAUAUUACGUCAU | -4.87 ± 0.42 | -3.03 ± 0.33
69 | GCUGAGCAAUAUUACGUCUC | – | -1.16 ± 0.35
70 | UUCCAGCAAUAUUACGGUUC | -2.81 ± 0.16 | -1.99 ± 0.24
71 | UAAGAGCAAUAUUACGGUCU | -3.26 ± 0.4 | -2.04 ± 0.24
72 | GAAGAGCAAUAUUACGAGAG | -2.3 ± 0.12 | -3.22 ± 0.27
73 | UGACAGCAAUAUUACGGUGC | -2.01 ± 0.49 | –
74 | ACGGAGCAAUAUUACGGUUU | -3.1 ± 0.15 | -3.31 ± 0.28
75 | AGCCAGCAAUAUUACGACUA | -1.99 ± 0.14 | -1.5 ± 0.14

Row | Sequence | self-splicing fitness (ln) (30 °C) | self-splicing fitness (ln) (37 °C)
76 | CCGAAGCAAUAUUACGAACC | -3.42 ± 0.48 | –
77 | CGUUAGCAAUAUUACGUCCA | -2.04 ± 0.41 | -1.13 ± 0.48
78 | AGCAAGCAAUAUUACGCGUA | -1.83 ± 0.083 | -0.167 ± 0.085
79 | CCUCAGCAAUAUUACGGUCC | -4.07 ± 0.36 | –
80 | CCAAAGCAAUAUUACGGUUG | -1.18 ± 0.062 | -0.628 ± 0.074
81 | CGCGAGCAAUAUUACGGGCU | -3.12 ± 0.21 | -1.17 ± 0.24
82 | UUCCAGCAAUAUUACGACUC | -3.04 ± 0.24 | -1.67 ± 0.19
83 | AUUUAGCAAUAUUACGCACC | -1.01 ± 0.18 | -0.21 ± 0.2
84 | GGAGAGCAAUAUUACGCUUA | -2.12 ± 0.14 | -0.41 ± 0.14
85 | AUGAAGCAAUAUUACGCCAU | -1.17 ± 0.082 | -0.85 ± 0.12
86 | CGUUAGCAAUAUUACGCUUC | – | -2.27 ± 0.36
87 | AGCCAGCAAUAUUACGAUGA | -3.75 ± 0.29 | -2.35 ± 0.24
88 | GACUAGCAAUAUUACGAGUG | -0.94 ± 0.078 | -0.316 ± 0.098
89 | AUCAAGCAAUAUUACGGCAA | -0.819 ± 0.088 | -0.213 ± 0.097
90 | UGUGAGCAAUAUUACGGUUA | -2.47 ± 0.2 | -0.332 ± 0.16
91 | CCCAAGCAAUAUUACGAUAG | -2.95 ± 0.16 | -2.54 ± 0.22
92 | AGGUAGCAAUAUUACGGGUC | -3.64 ± 0.03 | -2.96 ± 0.046
93 | UAACAGCAAUAUUACGUUUU | -3.39 ± 0.12 | -1.7 ± 0.099
94 | GGCUAGCAAUAUUACGAGAC | -3.62 ± 0.44 | –
95 | UAUCAGCAAUAUUACGAAGC | -3.75 ± 0.36 | -2.09 ± 0.31
96 | CGCGAGCAAUAUUACGGAAC | -3.86 ± 0.22 | -2.43 ± 0.29
97 | UAAUAGCAAUAUUACGUGCA | -1.36 ± 0.11 | -1.34 ± 0.099
98 | GCGCAGCAAUAUUACGGUUC | -0.737 ± 0.077 | 0.0559 ± 0.082
99 | GGCUAGCAAUAUUACGUGGG | -2.64 ± 0.17 | -1.91 ± 0.2

Source: the supplement of paper PMC7877785
